US20120213794A1 (published 2012)
Residue numbers refer to the chain shown, from its start.

B1: AX210 Fab (Fab, V domains shown)
VH: QVQLLESGGGLVQPGGSLRLSCKASGYTFSSYSIYWVRQAPGKGLEWIGWIDPGNGGTRYNQKFQSKATISRDNSKNTLYLQMNSLRAEDTAVYYCARARVGYSLDYWGQGTLVTVSS
VL: EIVLTQSPATLSLSPGERATITCRASQYVGSYLNWYQQKPGQAPRLLIYDASNRATGIPARFSGSGSGTDFTLTISSLEPEDFAVYYCQVWDSSPPVVFGGGTKVEIK
notes: Tested as purified Fab
B2: AX210 IgG (antibody, V domains shown)
VH: B1 VH
VL: B1 VL
notes: Purified IgG
B3: AX139 Fab (Fab, V domains shown)
VH: EVQLLESGGGLVQPGGSLRLSCKASGYTFSSYGMYWVRQAPGKGLEWIGWIDPGSGGTKYNEKFKGKATISRDNSKNTLYLQMNSLRAEDTAVYYCARERYGYYFDYWGQGTLVTVSS
VL: B1 VL with S52A
notes: Tested as purified Fab
B4: AX114 IgG (antibody, V domains shown)
VH: B3 VH
VL: B1 VL with S31T, V98A
notes: Purified IgG; also called AX114-IgG2
B5: AX211 IgG (antibody, V domains shown)
VH: B1 VH with S31R, Y32Q, S33G, I34F, Y35T, Q62E, Q65K, S66G, A99Y
VL: B1 VL
notes: Purified IgG
B6: AX137 Fab (Fab, V domains shown)
VH: B3 VH
VL: B1 VL with V29I, V90A
notes: Tested as purified Fab
B7: AX137 IgG (antibody, V domains shown)
VH: B3 VH
VL: B1 VL with V29I, V90A
notes: Purified IgG
B8: AX211 Fab (Fab, V domains shown)
VH: B1 VH with S31R, Y32Q, S33G, I34F, Y35T, Q62E, Q65K, S66G, A99Y
VL: B1 VL
notes: Tested as purified Fab
B9: AX212 Fab (Fab, V domains shown)
VH: B1 VH with I34F, Y35S, W50Y, N55S, R59K, S66G, A99Q
VL: B1 VL
notes: Tested as purified Fab
B10: AX213 Fab (Fab, V domains shown)
VH: B1 VH with S31R, S33G, Y35N, W50R, Q62E, Q65K, S66G, R100N, V101D, L105F
VL: EIVLTQSPATLSLSPGERATITCRASQYVGSYLNWYQQKPGQAPRLLIYDASNRATGIPARFSGSGSGTDFTLTISSLEPEDFAVYYCQVWDSSPPVVFGGGTKVEIKR
B11: AX114 Fab (Fab, V domains shown)
VH: B3 VH
VL: B1 VL with S31T, V98A
notes: Tested as purified Fab from E. coli TG1

Assays:
human PCSK9 [1] = target: T1, human PCSK9 (human, UniProt Q8NBP7 31-692); test: SPR (Biacore), Fab captured by anti-Fab IgG, 1:1 fit
T1 construct: also called hPCSK9; proprotein convertase subtilisin-kexin type 9
Experimental: Biacore assay was developed. First, goat anti-Fab IgGs were immobilized onto CM5 chip by amine coupling as described above. The anti-Fab IgGs were diluted to 200 μg/ml in pH 5/10 mM Acetate solution, and injected onto the NHS/EDC activated surface to achieve an immobilization level of ˜10,000 RU, followed with surface inactivation by injection of Ethanolamine. Then Fab samples at concentration of 2 μg/ml in HBS-P running buffer were injected for 3 minutes at flow speed of 20 ul/min, followed with K-injection (3 minutes injection for association and 6 minutes for dissociation) of PCSK9 at concentration of 10 to 100 nM. The sensor chip surface was regenerated by 30 second injection of 100 mM phosphoric acid. The binding sensorgrams were fitted with 1:1 Langmuir binding model to determine the binding affinity.
T1 sequence (Q8NBP7 31-692 limits assumed): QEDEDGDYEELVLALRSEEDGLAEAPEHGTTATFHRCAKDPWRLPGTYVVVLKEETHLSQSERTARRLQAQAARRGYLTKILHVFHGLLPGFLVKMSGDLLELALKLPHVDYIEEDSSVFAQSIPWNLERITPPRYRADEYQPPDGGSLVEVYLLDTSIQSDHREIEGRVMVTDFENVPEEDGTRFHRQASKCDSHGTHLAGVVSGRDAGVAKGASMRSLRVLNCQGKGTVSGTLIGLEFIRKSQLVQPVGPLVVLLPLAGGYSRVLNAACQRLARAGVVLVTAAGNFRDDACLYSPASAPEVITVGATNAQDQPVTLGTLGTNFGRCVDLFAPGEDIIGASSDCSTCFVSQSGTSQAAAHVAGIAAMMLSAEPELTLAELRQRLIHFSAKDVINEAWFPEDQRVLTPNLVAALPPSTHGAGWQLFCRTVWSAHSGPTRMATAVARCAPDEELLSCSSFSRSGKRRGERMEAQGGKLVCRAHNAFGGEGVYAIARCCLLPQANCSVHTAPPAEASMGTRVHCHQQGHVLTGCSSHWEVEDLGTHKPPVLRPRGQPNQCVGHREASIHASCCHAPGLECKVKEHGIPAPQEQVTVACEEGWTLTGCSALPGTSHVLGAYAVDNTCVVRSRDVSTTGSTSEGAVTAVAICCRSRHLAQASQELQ

human PCSK9 [2] = target: T2, human PCSK9 (human, UniProt Q8NBP7 31-692); test: SPR (Biacore), IgG captured by anti-human IgG, PCSK9 injected at 3.75-60 nM
T2 construct: Secreted PCSK9 is autocleaved into prodomain and mature chain, and a His-tag is named for the HEK293 constructs; also called hPCSK9; proprotein convertase subtilisin-kexin type 9
Experimental: The affinities of those IgG molecules were also measured by Biacore assay. Briefly, anti-human IgG monoclonal antibody form Human Antibody Capture Kit provided by Biacore was immobilized on CM5 chips at level of 8000 to 10000 RU. The IgG samples at concentration of ˜0.4 μg/ml was injected onto a sensor chip for 2 minutes at a flow rate of 20 μl/min, then PCSK9 proteins at 5 concentrations (3.75 to 60 nM) were injected onto an IgG captured flow cell for binding kinetic analysis. After each round injection, the sensor chip surface was regenerated by 30 second injection of 3M Magnesium Chloride.
T2 sequence (Q8NBP7 31-692 limits assumed): as above

Row | Binder | Kd (human PCSK9 [1]) [nM] | koff (human PCSK9 [1]) [s⁻¹] | kon (human PCSK9 [1]) [M⁻¹ s⁻¹] | Kd (human PCSK9 [2]) [nM] | koff (human PCSK9 [2]) [s⁻¹] | kon (human PCSK9 [2]) [M⁻¹ s⁻¹]
1 | B1 | 1.67 | 0.000287 | 172000 |  |  | 
2 | B2 |  |  |  | 2.64 | 0.000621 | 235000
3 | B3 | 13.2 | 0.00118 | 89700 |  |  | 
4 | B4 |  |  |  | 24 | 0.00361 | 151000
5 | B5 |  |  |  | 1.63 | 0.000589 | 361000
6 | B6 | 19.5 | 0.00208 | 107000 |  |  | 
7 | B7 |  |  |  | 9.98 | 0.00332 | 333000
8 | B8 | 1.67 | 0.000329 | 197000 |  |  | 
9 | B9 | 1.47 | 0.000233 | 159000 |  |  | 
10 | B10 | 1.37 | 0.000329 | 243000 |  |  | 
11 | B11 | 48.5 | 0.00348 | 71700 |  |  | 
